Test [1] has as its target DKK1-AP. Briefly: Scatchard analysis, cell binding (transfected 293T); panel b.
Test [2] has as its target DKK2-AP. The test is described as above.
Test [3] addresses DKK1-AP. Briefly: Scatchard analysis, cell binding (transfected 293T); panel d, Kd1 (high-affinity site).
Test [4] has as its target DKK2-AP. Put plainly: Scatchard analysis, cell binding (transfected 293T); panel e, Kd2 (low-affinity site).
Test [5] has as its target DKK2-AP. Put plainly: Scatchard analysis, cell binding (transfected 293T); panel e, Kd1 (high-affinity site).
Test [6] addresses DKK1-AP. Briefly: Scatchard analysis, cell binding (transfected 293T); panel d, Kd2 (low-affinity site).

B1: mkrm1 (receptor)
chain: ARPAPGPRSGPECFTANGADYRGTQSWTALQGGKPCLFWNETFQHPYNTLKYPNGEGGLGEHNYCRNPDGDVSPWCYVAEHEDGVYWKYCEIPACQMPGNLGCYKDHGNPPPLTGTSKTSNKLTIQTCISFCRSQRFKFAGMESGYACFCGNNPDYWKHGEAASTECNSVCFGDHTQPCGGDGRIILFDTLVGACGGNYSAMAAVVYSPDFPDTYATGRVCYWTIRVPGASRIHFNFTLFDIRDSADMVELLDGYTHRVLVRLSGRSRPPLSFNVSLDFVILYFFSDRINQAQGFAVLYQATKEEPPQERPAVNQTLAEVITEQANLSVSAAHSSKVLYVITPSPSHPPQTAPGSHSWAPSVGANSHRVEGWTVYGLATLLILTVTAVVAKILLHVTFKSHRVPASGDLRDCRQPGASGDIWTIFYEPSTTISIFKKKLKGQSQQDDRNPLVSD
In the case of B1, the figures for the Kd in the test with DKK1-AP [1] and in the test with DKK2-AP [2] were 280 pM and 350 pM, respectively.

B2: mkrm2 (receptor)
chain: GSLHSPGLSECFQVNGADYRGHQNYTGPRGAGRPCLFWDQTQQHSYSSASDPQGRWGLGAHNFCRNPDGDVQPWCYVAETEEGIYWRYCDIPTCHMPGYLGCFVDSGAPPALSGPSGTSTKLTVQVCLRFCRMKGYQLAGVEAGYACFCGSESDLARGRPAPATDCDQICFGHPGQLCGGDGRLGIYEVSVGSCQGNWSAPQGVIYSPDFPDEYGPDRNCSWVLGQLGAVLELTFRLFELADSRDRLELRDVSSGNLLRAFDGAHPPPPGPLRLRTAALLLTFRSDARGHAQGFALTYRGLQDTVEGRASPEDSTESLAGDPDGANASCSPKPGAAQASIGARVFSTVTAFSVLLLLLLSLLRLLRRRSCLLAPGKGSLAMGPSRGPGRSWAVWYRRPRGVALPCPPGDSQAEGPAAGYRPLSASSQSSLRSLVSAL
In the case of B2, the Kd in the test with DKK1-AP [3] is 300 pM; in the test with DKK2-AP [4], 3000 pM; in the test with DKK2-AP [5], 360 pM; in the test with DKK1-AP [6], 2600 pM.

One may read the Kd as a measure of binding affinity in units of concentration. A low value points to a tighter complex.

(Values after patent US7947462 (dated 2011).)
